According to the Human Domainome abundance scans (Beltran et al. 2025):
± gives the uncertainty stated by the source.

B1: Nanos homolog 2, residues 63 to 115; numbered along this chain, P60321 (parent)
chain: CNFCKHNGESRHVYSSHQLKTPDGVVVCPILRHYVCPVCGATGDQAHTLKYCP
B2: Dynamin-binding protein, residues 146 to 206; numbered along this chain, Q6XZF7 (parent)
chain: SMGQARALMGLSAQLDEELDFREGDVITIIGVPEPGWFEGELEGRRGIFPEGFVELLGPLR

Variants of: B1
Assay: abundance fitness (aPCA) (normalised: wild type 0, dead -1); higher = more abundant; growth selection in yeast, the domain comes from the species named
Conditions: Homo sapiens

Row | Variant | abundance fitness
1 | L49W | -0.021 ± 0.13
2 | L49S | -0.071 ± 0.097
3 | L49E | -0.095 ± 0.11
4 | L49A | 0.081 ± 0.087
5 | L49M | 0.148 ± 0.13
6 | L49I | 0.251 ± 0.16
7 | L49F | -0.076 ± 0.083
8 | L49T | 0.016 ± 0.11
9 | L49N | -0.013 ± 0.14
10 | L49G | -0.05 ± 0.06
11 | P53G | -0.359 ± 0.16
12 | P53S | -0.439 ± 0.2
13 | K50C | -0.42 ± 0.17
14 | K50L | -0.379 ± 0.099
15 | K50N | -0.1 ± 0.17
16 | K50F | -0.418 ± 0.17
17 | K50P | 0.145 ± 0.13
18 | K50G | -0.298 ± 0.063
19 | K50T | -0.117 ± 0.064
20 | K50A | -0.284 ± 0.09
21 | K50Q | -0.225 ± 0.11
22 | K50E | -0.185 ± 0.11
23 | K50M | -0.063 ± 0.16

Row | Variant | abundance fitness
24 | K50W | -0.226 ± 0.12
25 | K50Y | -0.318 ± 0.3
26 | K50S | -0.179 ± 0.086
27 | K50H | -0.249 ± 0.23
28 | K50D | -0.484 ± 0.22
29 | K50I | -0.809 ± 0.3
30 | K50V | -0.22 ± 0.075
31 | C52H | -0.181 ± 0.078
32 | C52Q | -0.574 ± 0.19
33 | C52M | -0.788 ± 0.26
34 | C52W | -0.824 ± 0.12
35 | C52D | -0.505 ± 0.18
36 | C52P | -0.249 ± 0.39
37 | C52V | -0.721 ± 0.082
38 | C52E | -0.64 ± 0.34
39 | C52A | -0.777 ± 0.2
40 | C52K | -0.488 ± 0.1
41 | C52G | -0.732 ± 0.09
42 | C52I | -0.731 ± 0.49
43 | C52Y | -0.497 ± 0.13
44 | C52S | -0.432 ± 0.12
45 | C52F | -0.789 ± 0.22
46 | C52R | -0.506 ± 0.085

Variants of: B2
Assay: as above
Conditions: Homo sapiens

Row | Variant | abundance fitness
47 | PMGQARALMGLSAQLDEELDFREGDVITIIGVPEPGWFEGELEGRRGIFPEGFVELLGPLR [S1P] | -0.661 ± 0.36
48 | NMGQARALMGLSAQLDEELDFREGDVITIIGVPEPGWFEGELEGRRGIFPEGFVELLGPLR [S1N] | -0.049 ± 0.11
49 | LMGQARALMGLSAQLDEELDFREGDVITIIGVPEPGWFEGELEGRRGIFPEGFVELLGPLR [S1L] | -0.554 ± 0.14
50 | VMGQARALMGLSAQLDEELDFREGDVITIIGVPEPGWFEGELEGRRGIFPEGFVELLGPLR [S1V] | 0.076 ± 0.11
51 | MMGQARALMGLSAQLDEELDFREGDVITIIGVPEPGWFEGELEGRRGIFPEGFVELLGPLR [S1M] | 0.073 ± 0.3
52 | FMGQARALMGLSAQLDEELDFREGDVITIIGVPEPGWFEGELEGRRGIFPEGFVELLGPLR [S1F] | -0.029 ± 0.087
53 | WMGQARALMGLSAQLDEELDFREGDVITIIGVPEPGWFEGELEGRRGIFPEGFVELLGPLR [S1W] | -0.16 ± 0.27
54 | CMGQARALMGLSAQLDEELDFREGDVITIIGVPEPGWFEGELEGRRGIFPEGFVELLGPLR [S1C] | -0.077 ± 0.056
55 | AMGQARALMGLSAQLDEELDFREGDVITIIGVPEPGWFEGELEGRRGIFPEGFVELLGPLR [S1A] | 0.121 ± 0.084
56 | TMGQARALMGLSAQLDEELDFREGDVITIIGVPEPGWFEGELEGRRGIFPEGFVELLGPLR [S1T] | -0.092 ± 0.11
57 | IMGQARALMGLSAQLDEELDFREGDVITIIGVPEPGWFEGELEGRRGIFPEGFVELLGPLR [S1I] | 0.103 ± 0.084
58 | DMGQARALMGLSAQLDEELDFREGDVITIIGVPEPGWFEGELEGRRGIFPEGFVELLGPLR [S1D] | -0.036 ± 0.15
59 | HMGQARALMGLSAQLDEELDFREGDVITIIGVPEPGWFEGELEGRRGIFPEGFVELLGPLR [S1H] | -0.104 ± 0.12
60 | RMGQARALMGLSAQLDEELDFREGDVITIIGVPEPGWFEGELEGRRGIFPEGFVELLGPLR [S1R] | -0.319 ± 0.12
61 | YMGQARALMGLSAQLDEELDFREGDVITIIGVPEPGWFEGELEGRRGIFPEGFVELLGPLR [S1Y] | 0.064 ± 0.06
62 | SMGQARALMGLEAQLDEELDFREGDVITIIGVPEPGWFEGELEGRRGIFPEGFVELLGPLR [S12E] | -0.426 ± 0.45
63 | SMGQAYALMGLSAQLDEELDFREGDVITIIGVPEPGWFEGELEGRRGIFPEGFVELLGPLR [R6Y] | -0.471 ± 0.064
64 | SMGQAQALMGLSAQLDEELDFREGDVITIIGVPEPGWFEGELEGRRGIFPEGFVELLGPLR [R6Q] | -0.495 ± 0.18
65 | SMGQANALMGLSAQLDEELDFREGDVITIIGVPEPGWFEGELEGRRGIFPEGFVELLGPLR [R6N] | -0.763 ± 0.094
66 | SMGQARVLMGLSAQLDEELDFREGDVITIIGVPEPGWFEGELEGRRGIFPEGFVELLGPLR [A7V] | -0.836 ± 0.24
67 | SMGQARFLMGLSAQLDEELDFREGDVITIIGVPEPGWFEGELEGRRGIFPEGFVELLGPLR [A7F] | -1.01 ± 0.21
68 | SMGQARNLMGLSAQLDEELDFREGDVITIIGVPEPGWFEGELEGRRGIFPEGFVELLGPLR [A7N] | -0.781 ± 0.11
69 | SMGQARYLMGLSAQLDEELDFREGDVITIIGVPEPGWFEGELEGRRGIFPEGFVELLGPLR [A7Y] | -0.93 ± 0.12
70 | SMGQARTLMGLSAQLDEELDFREGDVITIIGVPEPGWFEGELEGRRGIFPEGFVELLGPLR [A7T] | -0.296 ± 0.21
71 | SMGQARKLMGLSAQLDEELDFREGDVITIIGVPEPGWFEGELEGRRGIFPEGFVELLGPLR [A7K] | -0.672 ± 0.21

Row | Variant | abundance fitness
72 | SMGQARELMGLSAQLDEELDFREGDVITIIGVPEPGWFEGELEGRRGIFPEGFVELLGPLR [A7E] | -0.989 ± 0.33
73 | SMGQARALCGLSAQLDEELDFREGDVITIIGVPEPGWFEGELEGRRGIFPEGFVELLGPLR [M9C] | -0.013 ± 0.061
74 | SMGQARALTGLSAQLDEELDFREGDVITIIGVPEPGWFEGELEGRRGIFPEGFVELLGPLR [M9T] | 0.017 ± 0.051
75 | SMGQARALFGLSAQLDEELDFREGDVITIIGVPEPGWFEGELEGRRGIFPEGFVELLGPLR [M9F] | -0.225 ± 0.045
76 | SMGQARASMGLSAQLDEELDFREGDVITIIGVPEPGWFEGELEGRRGIFPEGFVELLGPLR [L8S] | -0.305 ± 0.045
77 | SMGQARATMGLSAQLDEELDFREGDVITIIGVPEPGWFEGELEGRRGIFPEGFVELLGPLR [L8T] | 0.014 ± 0.057
78 | SMGQARALMGVSAQLDEELDFREGDVITIIGVPEPGWFEGELEGRRGIFPEGFVELLGPLR [L11V] | -0.402 ± 0.081
79 | SMGQARALMGQSAQLDEELDFREGDVITIIGVPEPGWFEGELEGRRGIFPEGFVELLGPLR [L11Q] | 0.191 ± 0.072
80 | SMGLARALMGLSAQLDEELDFREGDVITIIGVPEPGWFEGELEGRRGIFPEGFVELLGPLR [Q4L] | -0.176 ± 0.047
81 | SMGMARALMGLSAQLDEELDFREGDVITIIGVPEPGWFEGELEGRRGIFPEGFVELLGPLR [Q4M] | -0.065 ± 0.13
82 | SMGQGRALMGLSAQLDEELDFREGDVITIIGVPEPGWFEGELEGRRGIFPEGFVELLGPLR [A5G] | -0.008 ± 0.045
83 | SMGQDRALMGLSAQLDEELDFREGDVITIIGVPEPGWFEGELEGRRGIFPEGFVELLGPLR [A5D] | -0.706 ± 0.18
84 | SMGQCRALMGLSAQLDEELDFREGDVITIIGVPEPGWFEGELEGRRGIFPEGFVELLGPLR [A5C] | -0.302 ± 0.067
85 | SMGQPRALMGLSAQLDEELDFREGDVITIIGVPEPGWFEGELEGRRGIFPEGFVELLGPLR [A5P] | -0.686 ± 0.11
86 | SMGQSRALMGLSAQLDEELDFREGDVITIIGVPEPGWFEGELEGRRGIFPEGFVELLGPLR [A5S] | -0.545 ± 0.13
87 | SMGQKRALMGLSAQLDEELDFREGDVITIIGVPEPGWFEGELEGRRGIFPEGFVELLGPLR [A5K] | -0.696 ± 0.39
88 | SMGQARALMRLSAQLDEELDFREGDVITIIGVPEPGWFEGELEGRRGIFPEGFVELLGPLR [G10R] | -0.014 ± 0.055
89 | SMGQARALMELSAQLDEELDFREGDVITIIGVPEPGWFEGELEGRRGIFPEGFVELLGPLR [G10E] | -0.14 ± 0.09
90 | SMGQARALMQLSAQLDEELDFREGDVITIIGVPEPGWFEGELEGRRGIFPEGFVELLGPLR [G10Q] | -0.016 ± 0.12
91 | SMGQARALMLLSAQLDEELDFREGDVITIIGVPEPGWFEGELEGRRGIFPEGFVELLGPLR [G10L] | -0.436 ± 0.13
92 | SMWQARALMGLSAQLDEELDFREGDVITIIGVPEPGWFEGELEGRRGIFPEGFVELLGPLR [G3W] | -0.227 ± 0.072
93 | SMNQARALMGLSAQLDEELDFREGDVITIIGVPEPGWFEGELEGRRGIFPEGFVELLGPLR [G3N] | 0.245 ± 0.043
94 | SCGQARALMGLSAQLDEELDFREGDVITIIGVPEPGWFEGELEGRRGIFPEGFVELLGPLR [M2C] | -0.521 ± 0.095
95 | SIGQARALMGLSAQLDEELDFREGDVITIIGVPEPGWFEGELEGRRGIFPEGFVELLGPLR [M2I] | -0.03 ± 0.058
96 | SVGQARALMGLSAQLDEELDFREGDVITIIGVPEPGWFEGELEGRRGIFPEGFVELLGPLR [M2V] | -0.277 ± 0.062
